In patent US20220001043A1 (IMAGINAB, published 2022):

Assays:
human CD8 [1] = molecular target: T1, human CD8 (Homo sapiens, UniProt P01732 22-235; A6NJW9 19-210); test: binding to CD8 glycoprotein; method not given
T1 construct: CD8 as carried by purified human T cells, HPB-ALL leukemia cells, human tissues and CD8+ cells in patients; also called huCD8; CD8 glycoprotein

human CD8 [2] = molecular target: T1, human CD8; test: flow cytometry on human T cells carrying CD8
Description: (§1) The binding affinity and specificity of IAB22M2C and Zr-Df-IAB22M2C to human CD8 expressed on cell surfaces were evaluated by flow cytometry for a several cell types, including HPB-ALL leukemia cells (DSMZ, Braunschweig, Germany), purified human T cells, and PC3 prostate cancer cells engineered to express huCD8 (ImaginAb, Inc.).

human CD8 [3] = molecular target: T1, human CD8; test: flow cytometry on HPB-ALL cell line carrying CD8
Description: as §1

human CD8 [4] = molecular target: T1, human CD8; test: cell binding; read as HPB-ALL cells ('respectively' taken to mean the cell types, as in p-1525)
human CD8 [5] = molecular target: T1, human CD8; test: cell binding; read as purified human T cells ('respectively' taken to mean the cell types, as in p-1525)

T1 sequence (P01732 22-235 limits assumed, chain 1 of 2): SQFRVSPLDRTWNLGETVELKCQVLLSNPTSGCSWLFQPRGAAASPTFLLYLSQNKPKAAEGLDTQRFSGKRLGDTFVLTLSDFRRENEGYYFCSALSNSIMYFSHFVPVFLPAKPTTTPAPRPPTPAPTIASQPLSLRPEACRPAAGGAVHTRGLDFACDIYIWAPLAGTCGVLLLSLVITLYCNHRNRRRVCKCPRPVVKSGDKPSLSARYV
T1 sequence (A6NJW9 19-210 C51R/T71A limits assumed, chain 2 of 2): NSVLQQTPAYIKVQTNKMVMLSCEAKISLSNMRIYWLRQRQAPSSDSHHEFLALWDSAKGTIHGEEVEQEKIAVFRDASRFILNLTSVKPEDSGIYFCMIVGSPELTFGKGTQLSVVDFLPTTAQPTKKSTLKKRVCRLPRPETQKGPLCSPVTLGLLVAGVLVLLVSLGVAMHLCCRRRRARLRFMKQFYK

B1: 89Zr-Df-IAB22M2C (other)
chain: DVQITQSPSSLSASVGDRVTITCRTSRSISQYLAWYQQKPGKVPKLLIYSGSTLQSGVPSRFSGSGSGTDFTLTISSLQPEDVATYYCQQHNENPLTFGGGTKVEIKGSTSGGGSGGGSGGGGSSEVQLVESGGGLVQPGGSLRLSCAASGFNIKDTYIHFVRQAPGKGLEWIGRIDPANDNTLYASKFQGKATISADTSKNTAYLQMNSLRAEDTAVYYCGRGYGYYVFDHWGQGTLVTVSSEPKSSDKTHTCPPCPPCGGGSSGGGSGGQPREPQVYTLPPSREEMTKNQVSLTCLVKGFYPSDIAVEWESNGQPENNYKTTPPVLDSDGSFFLYSKLTVDKSRWQQGNVFSCSVMHEALHNHYTQKSLSLSPG
modifications: deferoxamine (Df) conjugated to lysine residues, radiolabeled with 89Zr
notes: Radiolabeled drug product; Same polypeptide as m1; For patients it is formulated together with cold unconjugated IAB22M2C; also called 89Zr-Df-IAB22M Lot: 42-040A; CD8 PET tracer
Q: For B1, which EC50 (human CD8 [1]) is on record?
A: The EC50 was 0.4 nM.

B2: IAB22M2C (other)
chain: DVQITQSPSSLSASVGDRVTITCRTSRSISQYLAWYQQKPGKVPKLLIYSGSTLQSGVPSRFSGSGSGTDFTLTISSLQPEDVATYYCQQHNENPLTFGGGTKVEIKGSTSGGGSGGGSGGGGSSEVQLVESGGGLVQPGGSLRLSCAASGFNIKDTYIHFVRQAPGKGLEWIGRIDPANDNTLYASKFQGKATISADTSKNTAYLQMNSLRAEDTAVYYCGRGYGYYVFDHWGQGTLVTVSSEPKSSDKTHTCPPCPPCGGGSSGGGSGGQPREPQVYTLPPSREEMTKNQVSLTCLVKGFYPSDIAVEWESNGQPENNYKTTPPVLDSDGSFFLYSKLTVDKSRWQQGNVFSCSVMHEALHNHYTQKSLSLSPG
notes: also called IAB22M2C Mb; IAB22M2C minibody
Q: With B2 as the binder, how does the EC50 (human CD8 [2]) read?
A: Its EC50 is 0.4 nM.

Q: What about the EC50 (human CD8 [3]) of the same binder?
A: Its EC50 is 0.3 nM.

B3: Df-IAB22M2C (other)
chain: DVQITQSPSSLSASVGDRVTITCRTSRSISQYLAWYQQKPGKVPKLLIYSGSTLQSGVPSRFSGSGSGTDFTLTISSLQPEDVATYYCQQHNENPLTFGGGTKVEIKGSTSGGGSGGGSGGGGSSEVQLVESGGGLVQPGGSLRLSCAASGFNIKDTYIHFVRQAPGKGLEWIGRIDPANDNTLYASKFQGKATISADTSKNTAYLQMNSLRAEDTAVYYCGRGYGYYVFDHWGQGTLVTVSSEPKSSDKTHTCPPCPPCGGGSSGGGSGGQPREPQVYTLPPSREEMTKNQVSLTCLVKGFYPSDIAVEWESNGQPENNYKTTPPVLDSDGSFFLYSKLTVDKSRWQQGNVFSCSVMHEALHNHYTQKSLSLSPG
modifications: deferoxamine (Df) conjugated to lysine residues; chelator:minibody ratio of approximately 2
notes: Same polypeptide as m1; also called desferrioxamine-conjugated IAB22M2C; Df-IAB22M2C critical intermediate
Q: With B3 as the binder, how does the EC50 (human CD8 [4]) read?
A: The EC50 was 0.3 nM.

Q: What about the EC50 (human CD8 [5]) of the same binder?
A: The EC50 was 0.4 nM.
